# Measured values taken from the Human Domainome abundance scans (Beltran et al. 2025).
# ± gives the uncertainty stated by the source.
# B1: Triacylglycerol hydrolase DDHD2, residues 389 to 447; numbered along this chain, O94830 (parent)
# chain: TLEEDLKKLQLSEFFDIFEKEKVDKEALALCTDRDLQEIGIPLGPRKKILNYFSTRKNS
# Variants of: B1
# Experiment: abundance fitness (aPCA) (normalised: wild type 0, dead -1); higher = more abundant; growth selection in yeast, the domain comes from the species named
# Conditions: Homo sapiens
row,Variant,abundance fitness
1,S12K,-0.032 ± 0.078
2,S12M,-0.119 ± 0.072
3,S12Q,0.101 ± 0.075
4,C31E,-0.366 ± 0.099
5,C31P,-0.196 ± 0.11
6,C31N,-0.304 ± 0.11
7,C31F,0.605 ± 0.072
8,C31A,0.343 ± 0.065
9,C31M,0.977 ± 0.084
10,T1V,-0.44 ± 0.15
11,T1M,-0.475 ± 0.21
12,T1P,-0.999 ± 0.42
13,S59Q,-0.293 ± 0.4
14,S59H,-0.056 ± 0.17
15,S59W,-0.074 ± 0.16
16,S59L,-0.473 ± 0.14
17,S59D,0.23 ± 0.17
18,S59V,-0.153 ± 0.12
19,S59T,-0.085 ± 0.11
20,S59M,-0.068 ± 0.2
21,K25T,-0.302 ± 0.1
22,K25A,-0.05 ± 0.086
23,K25W,-0.329 ± 0.086
24,K25D,-0.027 ± 0.1

row,Variant,abundance fitness
1,K25E,0.293 ± 0.08
2,I41V,0.003 ± 0.063
3,I41N,-0.837 ± 0.21
4,I41H,-0.31 ± 0.14
5,I41A,-0.433 ± 0.087
6,I41M,0.134 ± 0.08
7,I41C,-0.425 ± 0.12
8,Y52L,-0.354 ± 0.073
9,Y52T,-0.172 ± 0.11
10,Y52Q,0.123 ± 0.12
11,K7G,-0.056 ± 0.089
12,K7C,-0.294 ± 0.2
13,K7S,-0.08 ± 0.077
14,K7Y,-0.006 ± 0.14
15,K7I,-0.741 ± 0.38
16,K7V,-0.43 ± 0.087
17,L6V,-1.12 ± 0.11
18,L6Q,-0.336 ± 0.17
19,L6Y,-0.675 ± 0.43
20,L6T,-0.492 ± 0.11
21,L6R,-0.833 ± 0.11
22,K20W,-0.536 ± 0.11
23,K20V,-0.432 ± 0.088
24,K20C,-0.538 ± 0.14

row,Variant,abundance fitness
1,K20H,-0.212 ± 0.14
2,K20M,0.081 ± 0.091
3,K20S,-0.332 ± 0.088
4,K20A,0.07 ± 0.085
5,K20T,-0.104 ± 0.09
6,K48L,-0.007 ± 0.075
7,K48T,0.374 ± 0.078
8,K48H,-0.213 ± 0.13
9,K48V,0.244 ± 0.061
10,L30P,-0.177 ± 0.092
11,L30F,-0.031 ± 0.096
12,L30E,0.49 ± 0.09
13,L30W,0.263 ± 0.081
14,L30V,0.329 ± 0.075
15,L30G,0.452 ± 0.068
16,L30N,0.687 ± 0.086
17,E21M,0.86 ± 0.084
18,E21R,0.508 ± 0.06
19,E21W,0.299 ± 0.072
20,E21T,0.212 ± 0.084
21,E21Q,0.137 ± 0.094
22,E21L,0.45 ± 0.06
23,E21D,-0.275 ± 0.12
24,E21Y,0.385 ± 0.12

row,Variant,abundance fitness
1,E21F,0.616 ± 0.11
2,E3A,-0.142 ± 0.063
3,E3P,-0.817 ± 0.088
4,E3K,0.101 ± 0.081
5,E3Q,-0.251 ± 0.078
6,E3F,-0.209 ± 0.1
7,E3H,-0.358 ± 0.11
8,E3L,-0.145 ± 0.058
9,E3W,-0.16 ± 0.059
10,E3G,-0.591 ± 0.057
11,F15S,0.088 ± 0.076
12,F15L,0.02 ± 0.067
13,F15D,-0.465 ± 0.2
14,F15C,-0.035 ± 0.17
15,F15N,0.05 ± 0.21
16,G40W,-1.23 ± 0.17
17,G40Q,-0.216 ± 0.12
18,G40K,-0.651 ± 0.16
19,G40C,-0.573 ± 0.14
20,G40V,-0.689 ± 0.078
21,G40A,-0.65 ± 0.085
22,E13P,-0.432 ± 0.16
23,E13S,-0.252 ± 0.1
24,E13A,-0.036 ± 0.089

row,Variant,abundance fitness
1,E13M,-0.135 ± 0.17
2,K22T,-0.16 ± 0.094
3,K22D,0.194 ± 0.11
4,K22G,0.455 ± 0.067
5,K22M,-0.103 ± 0.095
6,K22H,0.076 ± 0.11
7,K22R,-0.193 ± 0.073
8,K22L,-0.172 ± 0.064
9,K22F,0.002 ± 0.09
10,K22S,0.107 ± 0.075
11,K22N,0.381 ± 0.097
12,T32M,-0.299 ± 0.1
13,T32P,-0.589 ± 0.11
14,T32C,-0.494 ± 0.1
15,T32F,-1.18 ± 0.2
16,T32D,-0.163 ± 0.097
17,F14W,-0.179 ± 0.076
18,F14L,0 ± 0.06
19,L28H,-0.252 ± 0.14
20,L28K,-0.467 ± 0.1
21,L28P,-0.504 ± 0.12
22,L28S,-0.215 ± 0.078
23,L28I,-0.368 ± 0.11
24,L28Y,-0.634 ± 0.15

row,Variant,abundance fitness
1,L28E,-0.129 ± 0.096
2,L28Q,-0.365 ± 0.12
3,L28G,-0.386 ± 0.074
4,N51E,0.18 ± 0.094
5,N51P,-0.37 ± 0.11
6,N51W,-0.384 ± 0.094
7,N51V,-0.729 ± 0.092
8,N51C,-0.323 ± 0.096
9,N51A,0.151 ± 0.073
10,E38A,0.181 ± 0.077
11,E38S,-0.369 ± 0.07
12,E38C,-0.129 ± 0.08
13,E38K,0.299 ± 0.094
14,D35Y,0.207 ± 0.12
15,D35C,-0.278 ± 0.12
16,D35G,-0.182 ± 0.074
17,D35H,0.087 ± 0.13
18,D35S,-0.051 ± 0.07
19,D35L,-0.762 ± 0.08
20,D35E,0.197 ± 0.073
21,D35W,-0.429 ± 0.1
22,D35M,0.215 ± 0.083
23,G44Q,0.333 ± 0.069
24,G44D,0.342 ± 0.058

row,Variant,abundance fitness
1,G44L,0.1 ± 0.049
2,G44K,0.18 ± 0.072
3,G44V,0.375 ± 0.049
4,G44Y,-0.122 ± 0.054
5,R46I,-0.163 ± 0.1
6,R46E,-0.217 ± 0.1
7,R46G,-0.107 ± 0.055
8,R46T,-0.224 ± 0.095
9,R46S,-0.058 ± 0.066
10,R46P,-0.628 ± 0.11
11,R46W,-1.27 ± 0.17
12,D5Q,-0.062 ± 0.068
13,D5S,-0.016 ± 0.062
14,D5L,0.021 ± 0.052
15,D5E,0.123 ± 0.058
16,D5M,-0.194 ± 0.076
17,D5F,0.032 ± 0.1
18,A29R,0.011 ± 0.064
19,A29V,-0.401 ± 0.084
20,A29W,-0.399 ± 0.09
21,A29G,-0.191 ± 0.074
22,A29D,-0.264 ± 0.12
23,A29H,0.06 ± 0.11
